Experiment [1] has as its target T1, Aβ1-42 polypeptide (human).
T1 construct: Synthetic peptide; also called Aβ1-42 monomer; Aβ monomer
Briefly: ELISA EC50 on Aβ42 monomer, 2 ml transient transfection; table note: '-' means no combination; expression 6.14 mg/L. (In general: An ELISA detects its analyte on a solid surface through an enzyme-linked reagent.)

Experiment [2] concerns the target T1, Aβ1-42 polypeptide. Put plainly: ELISA EC50 on Aβ42 monomer, 2 ml transient transfection; table note: '-' means no combination; expression 7.72 mg/L.

T1 sequence (peptide, as listed by the source): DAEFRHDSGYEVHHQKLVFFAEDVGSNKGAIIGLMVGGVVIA

B1: 066-4.26.14H2L5 (antibody, human IgG1, kappa, V domains shown)
VH: EVQLVESGGGLVKPGGSLRLSCAASGFTFRSYAMSWVRQTPEKRLEWVASISTTSNTYYPDSVKGRFTTSRDNAKNSVYLQMSSLRAEDTAVYYCGRGVITNQAWFAYWGQGTTVTVSS
VL: EIVLTQSPDFQSVTPKEKVTITCRASQSISNNLHWYQQKPDQSPKLLIKYASQSISGVPSRFSGSGSGTDFTLTINSLEAEDAATYYCQQSNSWPLTFGQGTKVEIKR
notes: Humanized full-length antibody; human IgG1 heavy constant and human kappa light constant (vectors pGS003-hIgG1CH, pGS003-hIgKCL)
On to B1, for which, in experiment [1], the binding result is given as “no binding”.

B2: 066-4.26.14H2L4 (antibody, human IgG1, kappa, V domains shown)
VH: EVQLVESGGGLVKPGGSLRLSCAASGFTFRSYAMSWVRQTPEKRLEWVASISTTSNTYYPDSVKGRFTTSRDNAKNSVYLQMSSLRAEDTAVYYCGRGVITNQAWFAYWGQGTTVTVSS
VL: EIVLTQSPGTLSLSPGERATLSCRASQSISNNLHWYQQKPGQAPRLLIKYASQSISGIPDRFSGSGSGTDFTLTISRLEPEDFAVYYCQQSNSWPLTFGGGTKVEIKR
notes: as for B1
As to B2, the binding result in experiment [2] was “no binding”.

These data come from patent publication US20220242936A1 (CHANGCHUN GENESCIENCE PHARMACEUTICAL, published 2022).
